How the values were obtained:
Assay type in all cases: binding
CUL1 = target: T1, CUL1 (Homo sapiens, UniProt Q13616, L371D/V367R); assay: Naive Library Presenter Screening (phage, NGS), CUL1; conditions: for interaction data at Target Concentration 10: CUL1 target concentration 10 nM; for interaction data at Target Concentration 30: CUL1 target concentration 30 nM; for interaction data at Target Concentration 100: CUL1 target concentration 100 nM; for interaction data at Target Concentration 300: CUL1 target concentration 300 nM; for interaction data at Target Concentration 1000: CUL1 target concentration 1000 nM
T1 construct: CUL1 (Uniprot ID: Q13616, residue 15-410, V367R/L371D); GST-TEV (N, cleaved yes); made in house; host or cells: E. coli BL21 CodonPlus

CUL4B = target: T2, CUL4B (Homo sapiens, UniProt Q13620, L520D/V516R); assay: Naive Library Presenter Screening (phage, NGS), CUL4B; conditions: for interaction data at Target Concentration 10: CUL4B target concentration 10 nM; for interaction data at Target Concentration 30: CUL4B target concentration 30 nM; for interaction data at Target Concentration 100: CUL4B target concentration 100 nM; for interaction data at Target Concentration 300: CUL4B target concentration 300 nM; for interaction data at Target Concentration 1000: CUL4B target concentration 1000 nM
T2 construct: GST-TEV (N, cleaved yes); made in house; host or cells: E. coli BL21 CodonPlus
T2 sequence (Q13620 206-557 V516R/L520D): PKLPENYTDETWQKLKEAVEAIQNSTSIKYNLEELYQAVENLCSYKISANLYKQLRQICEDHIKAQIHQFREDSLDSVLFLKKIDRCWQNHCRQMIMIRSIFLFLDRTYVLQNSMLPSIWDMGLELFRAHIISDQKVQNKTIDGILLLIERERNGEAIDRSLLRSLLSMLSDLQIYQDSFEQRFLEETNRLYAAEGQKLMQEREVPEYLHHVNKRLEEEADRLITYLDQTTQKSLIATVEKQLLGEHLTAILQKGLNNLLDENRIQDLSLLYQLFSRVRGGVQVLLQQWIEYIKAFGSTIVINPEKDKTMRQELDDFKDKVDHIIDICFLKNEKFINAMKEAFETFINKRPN

CUL5 = target: T3, CUL5 (Homo sapiens, UniProt Q93034, L345D/V341R); assay: Naive Library Presenter Screening (phage, NGS), CUL5; conditions: for interaction data at Target Concentration 10: CUL5 target concentration 10 nM; for interaction data at Target Concentration 30: CUL5 target concentration 30 nM; for interaction data at Target Concentration 100: CUL5 target concentration 100 nM; for interaction data at Target Concentration 300: CUL5 target concentration 300 nM; for interaction data at Target Concentration 1000: CUL5 target concentration 1000 nM
T3 construct: GST-TEV (N, cleaved yes); made in house; host or cells: E. coli BL21 CodonPlus
T3 sequence (Q93034 1-386 V341R/L345D): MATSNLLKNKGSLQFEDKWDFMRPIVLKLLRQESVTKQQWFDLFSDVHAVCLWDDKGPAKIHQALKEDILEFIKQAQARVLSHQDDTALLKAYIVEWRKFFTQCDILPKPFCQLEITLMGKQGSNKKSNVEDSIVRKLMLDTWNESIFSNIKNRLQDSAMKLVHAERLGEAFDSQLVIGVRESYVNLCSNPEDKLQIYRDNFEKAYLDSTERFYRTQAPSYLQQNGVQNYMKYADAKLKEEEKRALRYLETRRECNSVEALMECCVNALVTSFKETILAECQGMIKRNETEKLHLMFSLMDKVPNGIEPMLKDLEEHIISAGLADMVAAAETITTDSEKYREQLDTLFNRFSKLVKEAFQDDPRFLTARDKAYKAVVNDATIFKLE

T1 sequence (Q13616 15-410 V367R/L371D): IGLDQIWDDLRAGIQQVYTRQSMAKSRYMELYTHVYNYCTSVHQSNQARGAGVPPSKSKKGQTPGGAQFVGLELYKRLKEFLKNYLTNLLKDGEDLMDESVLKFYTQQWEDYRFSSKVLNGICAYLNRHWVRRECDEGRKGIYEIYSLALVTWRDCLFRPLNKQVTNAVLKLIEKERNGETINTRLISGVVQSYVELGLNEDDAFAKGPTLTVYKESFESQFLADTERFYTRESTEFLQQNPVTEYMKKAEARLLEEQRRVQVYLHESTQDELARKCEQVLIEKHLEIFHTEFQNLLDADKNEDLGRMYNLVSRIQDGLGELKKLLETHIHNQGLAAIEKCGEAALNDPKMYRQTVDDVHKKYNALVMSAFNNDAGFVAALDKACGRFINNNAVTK

| Sequence | interaction data at Target Concentration 10 (CUL4B) | interaction data at Target Concentration 30 (CUL4B) | interaction data at Target Concentration 100 (CUL4B) | interaction data at Target Concentration 300 (CUL4B) | interaction data at Target Concentration 1000 (CUL4B; first column) | interaction data at Target Concentration 1000 (CUL4B; second column) | other results |
| --- | --- | --- | --- | --- | --- | --- | --- |
| DPAVMECDWAATICDIF | – | – | – | – | – | – | interaction data at Target Concentration 10 (CUL1): 0; interaction data at Target Concentration 30 (CUL1): 2; interaction data at Target Concentration 100 (CUL1): 154; interaction data at Target Concentration 300 (CUL1): 402; interaction data at Target Concentration 1000 (CUL1; first column): 477; interaction data at Target Concentration 1000 (CUL1; second column): 419 |
| DPAMNHCVLAAWVCDTF | 0 | 0 | 6 | 37 | 9 | 0 | – |
| DPAEQECDHAALWCIVA | – | – | – | – | – | – | interaction data at Target Concentration 10 (CUL1): 14; interaction data at Target Concentration 30 (CUL1): 19; interaction data at Target Concentration 100 (CUL1): 340; interaction data at Target Concentration 300 (CUL1): 937; interaction data at Target Concentration 1000 (CUL1; first column): 1137; interaction data at Target Concentration 1000 (CUL1; second column): 743 |
| DPAEQMCDIAAVWCLAH | – | – | – | – | – | – | interaction data at Target Concentration 10 (CUL1): 0; interaction data at Target Concentration 30 (CUL1): 0; interaction data at Target Concentration 100 (CUL1): 35; interaction data at Target Concentration 300 (CUL1): 135; interaction data at Target Concentration 1000 (CUL1; first column): 151; interaction data at Target Concentration 1000 (CUL1; second column): 88 |
| DPATRMCELAAWTCEVW | 0 | 0 | 1 | 31 | 9 | 0 | – |
| DPAIIQCDQAALWCVVT | – | – | – | – | – | – | interaction data at Target Concentration 10 (CUL1): 0; interaction data at Target Concentration 30 (CUL1): 0; interaction data at Target Concentration 100 (CUL1): 28; interaction data at Target Concentration 300 (CUL1): 83; interaction data at Target Concentration 1000 (CUL1; first column): 80; interaction data at Target Concentration 1000 (CUL1; second column): 61 |
| DPAQRACQFAAWICERF | 1 | 0 | 13 | 56 | 73 | 0 | – |
| DPADRQCIFAAWMCEAF | 0 | 0 | 3 | 9 | 34 | 0 | – |
| DPAEVHCDMAALYCIIR | – | – | – | – | – | – | interaction data at Target Concentration 10 (CUL1): 3; interaction data at Target Concentration 30 (CUL1): 7; interaction data at Target Concentration 100 (CUL1): 65; interaction data at Target Concentration 300 (CUL1): 242; interaction data at Target Concentration 1000 (CUL1; first column): 366; interaction data at Target Concentration 1000 (CUL1; second column): 119 |
| DPAQNDCEVAAFFCWLD | – | – | – | – | – | – | interaction data at Target Concentration 10 (CUL1): 1; interaction data at Target Concentration 30 (CUL1): 1; interaction data at Target Concentration 100 (CUL1): 233; interaction data at Target Concentration 300 (CUL1): 428; interaction data at Target Concentration 1000 (CUL1; first column): 586; interaction data at Target Concentration 1000 (CUL1; second column): 468 |
| DPASRMCEMAAWFCENY | 0 | 3 | 11 | 13 | 78 | 0 | – |
| DPAERHCQLAAWVCHQF | 0 | 0 | 0 | 99 | 29 | 0 | – |
| DPATTECILAAWICDRF | 0 | 0 | 15 | 31 | 18 | 0 | – |
| DPATRHCIFAAWACDRF | 0 | 0 | 47 | 20 | 12 | 0 | – |
| DPASRLCELAAWVCDSF | 4 | 15 | 139 | 319 | 251 | 0 | – |
| DPADRQCLFAAWYCEHT | 0 | 10 | 0 | 6 | 11 | 2 | – |
| DPADRWCELAAWICDEF | 0 | 0 | 0 | 6 | 17 | 0 | – |
| DPADRLCELAAWVCQSF | 0 | 0 | 0 | 48 | 9 | 0 | – |
| DPADRYCDMAAWVCERF | 1 | 1 | 15 | 248 | 340 | 0 | – |
| DPAWFDCAEAAWQCVFI | – | – | – | – | – | – | interaction data at Target Concentration 10 (CUL5): 2; interaction data at Target Concentration 30 (CUL5): 35; interaction data at Target Concentration 100 (CUL5): 91; interaction data at Target Concentration 300 (CUL5): 170; interaction data at Target Concentration 1000 (CUL5; first column): 31; interaction data at Target Concentration 1000 (CUL5; second column): 0 |
| DPAWRECAHAAWQCYIQ | – | – | – | – | – | – | interaction data at Target Concentration 10 (CUL5): 0; interaction data at Target Concentration 30 (CUL5): 50; interaction data at Target Concentration 100 (CUL5): 47; interaction data at Target Concentration 300 (CUL5): 21; interaction data at Target Concentration 1000 (CUL5; first column): 93; interaction data at Target Concentration 1000 (CUL5; second column): 0 |
| DPAWFTCAQAAWDCVFH | – | – | – | – | – | – | interaction data at Target Concentration 10 (CUL5): 0; interaction data at Target Concentration 30 (CUL5): 65; interaction data at Target Concentration 300 (CUL5): 96; interaction data at Target Concentration 1000 (CUL5; first column): 224; interaction data at Target Concentration 1000 (CUL5; second column): 0 |
| DPAWAICAEAAWDCFMI | – | – | – | – | – | – | interaction data at Target Concentration 10 (CUL5): 0; interaction data at Target Concentration 30 (CUL5): 14; interaction data at Target Concentration 100 (CUL5): 13; interaction data at Target Concentration 300 (CUL5): 58; interaction data at Target Concentration 1000 (CUL5; first column): 11; interaction data at Target Concentration 1000 (CUL5; second column): 0 |

From patent US20240376151A1, “STAPLED PEPTIDES AND METHODS THEREOF” (FOG PHARMACEUTICALS, INC., priority 2022, published 2024)
